This note sets out measurements from US20150010589A1 (published 2015).

T1: soluble collagen type III (pepsin-digested, non-fibrillar; BD Biosciences) (human, UniProt P02461 168-1196)
T1 construct: domain: pepsin-digested, soluble non-fibrillar (tertiary structure, triple helical); also called collagen III
T1 sequence: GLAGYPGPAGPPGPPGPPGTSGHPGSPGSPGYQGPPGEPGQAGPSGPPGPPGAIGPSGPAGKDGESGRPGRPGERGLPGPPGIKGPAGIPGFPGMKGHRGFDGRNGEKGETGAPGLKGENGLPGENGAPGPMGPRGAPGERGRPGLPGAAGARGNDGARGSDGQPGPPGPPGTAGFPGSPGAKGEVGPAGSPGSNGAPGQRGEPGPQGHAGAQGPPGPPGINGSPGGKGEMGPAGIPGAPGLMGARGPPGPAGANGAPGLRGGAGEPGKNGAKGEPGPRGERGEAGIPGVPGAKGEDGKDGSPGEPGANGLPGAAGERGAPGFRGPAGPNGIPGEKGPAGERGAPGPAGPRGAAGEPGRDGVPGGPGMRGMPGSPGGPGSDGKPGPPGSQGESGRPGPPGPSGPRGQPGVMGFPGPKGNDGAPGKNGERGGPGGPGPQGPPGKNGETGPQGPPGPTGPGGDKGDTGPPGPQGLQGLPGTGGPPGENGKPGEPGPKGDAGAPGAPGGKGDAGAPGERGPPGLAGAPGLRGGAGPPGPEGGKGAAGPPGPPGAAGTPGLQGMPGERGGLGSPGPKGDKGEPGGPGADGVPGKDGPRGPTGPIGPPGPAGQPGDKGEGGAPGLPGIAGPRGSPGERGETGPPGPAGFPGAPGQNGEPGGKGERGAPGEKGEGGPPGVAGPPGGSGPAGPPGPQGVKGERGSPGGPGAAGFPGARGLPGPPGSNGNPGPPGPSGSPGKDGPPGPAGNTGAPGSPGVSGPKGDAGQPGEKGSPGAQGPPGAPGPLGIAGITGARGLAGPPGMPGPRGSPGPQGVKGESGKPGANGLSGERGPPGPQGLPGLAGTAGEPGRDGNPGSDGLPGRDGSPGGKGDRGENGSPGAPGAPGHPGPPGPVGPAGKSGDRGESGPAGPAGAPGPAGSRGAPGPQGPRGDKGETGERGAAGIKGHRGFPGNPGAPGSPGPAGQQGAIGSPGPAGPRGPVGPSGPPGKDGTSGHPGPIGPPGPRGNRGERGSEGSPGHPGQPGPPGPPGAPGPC

B1: recombinant Aegyptin (mature protein with C-terminal 6xHis tag, expressed in 293-F cells) (other)
chain: RPMPEDEEPVAEGGDDDASGESEGEEETTDDAGGDGGEEENEGEEHAGDKDAGGEDTGKEENTGHDDAGEEDAGEEDAGEEDAGEEDAGEEDAEKEEGEKEDAGDDAGSDDGEEDSTGGDEGEDNAEDSKGSEKNDPADTYRQVVALLDKDTKVDHIQSEYLRSALNNDLQSEVRVPVVEAIGRIGDYSKIQGCFKSMGKDVKKVISEEEKKFKSCMSKKKSEYQCSEDSFAAAKSKLSPITSKIKSCVSSKGRHHHHHH
B2: Aegyptin C-terminus-2 (137 aa), truncated form without GEEDA repeats (other)
chain: GGDEGEDNAEDSKGSEKNDPADTYRQVVALLDKDTKVDHIQSEYLRSALNNDLQSEVRVPVVEAIGRIGDYSKIQGCFKSMGKDVKKVISEEEKKFKSCMSKKKSEYQCSEDSFAAAKSKLSPITSKIKSCVSSKGR
notes: also called C-terminal-2; C-terminus 2 domain
B3: recombinant GPVI (platelet glycoprotein VI) (receptor)
chain: QSGPLPKPSLQALPSSLVPLEKPVTLRCQGPPGVDLYRLEKLSSSRYQDQAVLFIPAMKRSLAGRYRCSYQNGSLWSLPSDQLELVATGVFAKPSLSAQPGPAVSSGGDVTLQCQTRYGFDQFALYKEGDPAPYKNPERWYRASFPIITVTAAHSGTYRCYSFSSRDPYLWSAPSDPLELVVTGTSVTPSRLPTEPPSPVAEFSEATAELTVSFTNEVFTTETSRSITASPKESDSPAGPARQYYTK

Test [1] has as its target T2, soluble collagen type I (pepsin-digested, non-fibrillar, triple helical; BD Biosciences) (human, UniProt P02452 179-1192; P08123 91-1104).
T2 construct: domain: pepsin-digested, soluble non-fibrillar (tertiary structure, triple helical); also called collagen I; Coll-I
In words: SPR, Aegyptin over immobilized soluble collagen type I, two-state model. In general terms: SPR reads the build-up and loss of mass on a sensor chip optically.

Test [2] has as its target T3, heat-denatured soluble collagen type I (90 min at 98° C.) (human, UniProt P02452 179-1192; P08123 91-1104).
T3 construct: domain: pepsin-digested, soluble non-fibrillar collagen, heat-denatured; Same material as soluble collagen I, denatured in a thermocycler before immobilization; also called Collagen denatured; heat-denatured collagen
In words: SPR, Aegyptin over immobilized heat-denatured collagen I, two-state model.

In test [3] the target is T2, soluble collagen type I …. In words: SPR, Aegyptin over immobilized soluble collagen type I, two-state model; Kd1.
In test [4] the target is T3, heat-denatured soluble collagen type I …. Put plainly: SPR, Aegyptin over immobilized heat-denatured collagen I, two-state model; Ka1.
Test [5] has the same target. Put plainly: SPR, Aegyptin over immobilized heat-denatured collagen I, two-state model; Kd1.
Test [6] addresses T2, soluble collagen type I …. In words: SPR kinetics at 15-40 C on immobilized collagen type I, van't Hoff analysis; value (±SE).
In test [7] the target is T4, RGQOGVMGFO peptide GPC-(GPP)5-GPOGPSGPRGQOGVMGFOGPKGNDGAO-(GPP)5-GPC-NH2, cross-linked (O residues as printed (hydroxyproline); C-terminal amide (NH2); cross-linked (4° C. for 48 hours in PBS, or SPDP)).
T4 construct: also called collagen type III vWf-related peptide
In words: ELISA, inhibition of vWf (3 nM) binding to the coated RGQOGVMGFO peptide by Aegyptin (0.05-3 µM). A general note: ELISA stands for enzyme-linked immunosorbent assay.

The target of test [8] is T2, soluble collagen type I …. In words: SPR (Biacore T100), Aegyptin over immobilized collagen type I, 25 C, two-state reaction model.
Test [9] deals with T1, soluble collagen type III …. Put plainly: SPR (Biacore T100), Aegyptin over immobilized collagen type III, 25 C, two-state reaction model.
Test [10] concerns the target T2, soluble collagen type I …. In words: SPR, Aegyptin over immobilized soluble collagen type I, 180 s at 30 µl/min, two-state model; Ka1.
For test [11], the target named is T2, soluble collagen type I …. In words: SPR (Biacore T100), Aegyptin over immobilized collagen type I, 25 C, two-state reaction model; Ka1.
The target of test [12] is T2, soluble collagen type I …. In words: SPR (Biacore T100), Aegyptin over immobilized collagen type I, 25 C, two-state reaction model; Kd1.
The target of test [13] is T1, soluble collagen type III …. In words: SPR (Biacore T100), Aegyptin over immobilized collagen type III, 25 C, two-state reaction model; Ka1.
For test [14] the target is unchanged. Put plainly: SPR (Biacore T100), Aegyptin over immobilized collagen type III, 25 C, two-state reaction model; Kd1.
For test [15], the target named is T2, soluble collagen type I …. In words: SPR, C-terminus-2 (5-250 nM) over immobilized soluble collagen type I, two-state binding model.
For test [16], the target named is B1. Put plainly: SPR, Aegyptin injected over immobilized GPVI.

T2 sequence (P02452 179-1192 limits assumed, chain 1 of 2): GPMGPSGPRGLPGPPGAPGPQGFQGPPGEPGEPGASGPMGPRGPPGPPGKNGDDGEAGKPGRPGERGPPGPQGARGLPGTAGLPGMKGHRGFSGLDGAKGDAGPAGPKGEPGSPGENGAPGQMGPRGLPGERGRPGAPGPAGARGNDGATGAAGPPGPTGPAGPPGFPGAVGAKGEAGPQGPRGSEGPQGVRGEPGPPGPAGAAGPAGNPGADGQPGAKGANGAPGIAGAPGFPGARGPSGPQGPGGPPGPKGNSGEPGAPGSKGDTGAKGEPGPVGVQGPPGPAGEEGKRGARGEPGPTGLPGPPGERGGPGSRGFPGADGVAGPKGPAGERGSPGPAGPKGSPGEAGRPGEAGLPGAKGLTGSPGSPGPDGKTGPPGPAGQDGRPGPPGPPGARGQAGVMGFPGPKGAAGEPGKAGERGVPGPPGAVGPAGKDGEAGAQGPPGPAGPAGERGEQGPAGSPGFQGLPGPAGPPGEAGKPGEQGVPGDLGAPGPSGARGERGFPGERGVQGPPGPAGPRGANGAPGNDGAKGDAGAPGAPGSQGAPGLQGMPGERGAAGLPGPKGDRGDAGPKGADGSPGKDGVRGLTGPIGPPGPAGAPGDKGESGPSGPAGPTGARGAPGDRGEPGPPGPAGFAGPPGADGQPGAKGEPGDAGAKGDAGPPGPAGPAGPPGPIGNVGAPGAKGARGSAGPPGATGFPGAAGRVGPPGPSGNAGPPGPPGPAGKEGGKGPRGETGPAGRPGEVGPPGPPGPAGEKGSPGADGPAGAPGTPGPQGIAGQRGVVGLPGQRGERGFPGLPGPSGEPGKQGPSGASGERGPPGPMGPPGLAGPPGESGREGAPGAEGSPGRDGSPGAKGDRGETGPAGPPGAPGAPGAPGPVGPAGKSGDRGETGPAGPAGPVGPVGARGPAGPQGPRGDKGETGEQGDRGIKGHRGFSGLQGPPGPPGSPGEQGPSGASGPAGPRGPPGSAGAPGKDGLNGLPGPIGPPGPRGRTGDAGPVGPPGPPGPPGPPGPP
T2 sequence (P08123 91-1104 limits assumed, chain 2 of 2): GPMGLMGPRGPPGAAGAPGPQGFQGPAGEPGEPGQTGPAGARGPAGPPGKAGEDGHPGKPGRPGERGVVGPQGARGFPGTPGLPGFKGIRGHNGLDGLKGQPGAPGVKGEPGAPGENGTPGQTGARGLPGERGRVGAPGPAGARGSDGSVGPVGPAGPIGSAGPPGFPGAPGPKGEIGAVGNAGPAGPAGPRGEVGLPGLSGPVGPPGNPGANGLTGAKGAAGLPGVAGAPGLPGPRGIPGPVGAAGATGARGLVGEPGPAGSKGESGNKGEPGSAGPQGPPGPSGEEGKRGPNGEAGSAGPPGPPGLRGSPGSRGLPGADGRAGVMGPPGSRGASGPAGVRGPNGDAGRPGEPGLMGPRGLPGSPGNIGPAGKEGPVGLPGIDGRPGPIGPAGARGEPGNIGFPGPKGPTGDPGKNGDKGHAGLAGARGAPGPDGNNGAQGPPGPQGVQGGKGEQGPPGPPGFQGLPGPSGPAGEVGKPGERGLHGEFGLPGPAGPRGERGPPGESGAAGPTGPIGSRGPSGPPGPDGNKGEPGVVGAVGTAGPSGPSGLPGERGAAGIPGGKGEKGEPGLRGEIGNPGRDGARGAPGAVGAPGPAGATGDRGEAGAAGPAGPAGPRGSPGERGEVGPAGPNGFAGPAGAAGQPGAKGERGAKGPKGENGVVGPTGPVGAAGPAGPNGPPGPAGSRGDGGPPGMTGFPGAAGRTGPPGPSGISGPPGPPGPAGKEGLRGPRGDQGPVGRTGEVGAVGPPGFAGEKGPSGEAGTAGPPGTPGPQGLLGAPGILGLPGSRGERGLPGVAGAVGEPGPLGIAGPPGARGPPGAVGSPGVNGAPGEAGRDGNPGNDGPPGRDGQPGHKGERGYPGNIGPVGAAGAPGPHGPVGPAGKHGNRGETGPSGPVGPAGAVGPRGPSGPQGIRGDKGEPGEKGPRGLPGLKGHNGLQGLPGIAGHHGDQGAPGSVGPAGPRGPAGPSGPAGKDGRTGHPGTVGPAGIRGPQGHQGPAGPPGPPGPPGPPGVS
T3 sequence (P02452 179-1192 limits assumed, chain 1 of 2): as the sequence (P02452 179-1192 limits assumed, chain 1 of 2) above
T3 sequence (P08123 91-1104 limits assumed, chain 2 of 2): as the sequence (P08123 91-1104 limits assumed, chain 2 of 2) above

As for B1, the Kd worked out at 0.98 nM in test [1], 3.32 nM in test [2], 1.22 nM in test [8] and 1.4 nM in [9]. The koff in test [3] stood at 0.0103 s⁻¹; in [5], 0.0188 s⁻¹; in test [12] it was 0.0154 s⁻¹; in test [14], 0.00605 s⁻¹. Further, the kon in [4] came out at 6740 M⁻¹ s⁻¹; in [10], 3.63e+08 M⁻¹ s⁻¹; in test [11], 4.24e+06 M⁻¹ s⁻¹; in test [13] it was 2.49e+06 M⁻¹ s⁻¹. In addition, the “TΔS°” value in [6] stood at 6.69 kcal/mol. Moreover, in test [6], the “ΔG°” value was -11.5 kcal/mol. For the same molecule, the “ΔH°” value in test [6] is -4.78 kcal/mol. Moreover, the “ΔS°” value in test [6] was 95 J/(K*mol). Besides, the IC50 in [7] was about 300 nM.
B2 came in with a Kd in test [15] of about 60 nM.
In the case of B3, the binding result in test [16] was “no binding (tested: 500 nM)”.

A word on the Kd: it is a measure of binding affinity in units of concentration. A lower Kd goes with higher affinity. A word on the koff: it is the first-order rate constant of dissociation. The low end stands for slow dissociation, the high end for fast dissociation. The term kon denotes the rate constant with which the complex forms. Usually IC50 stands for the point on the concentration scale where inhibition reaches its midpoint.
